Changes are numbered by the printed parent chain.
T1: Screening Peptide DDR1_HUMAN(788-808) (human, N-terminal Glu(Bi-PEG) (residue 1 of the letters given); C-terminal amide (-NH2))
T1 construct: The leading E stands for the printed Glu(Bi-PEG), which is not part of DDR1 788-808; also called non-phosphorylated screening peptide
T1 peptide: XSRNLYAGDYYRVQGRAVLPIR

B1: rabbit monoclonal anti-pY796-DDR1 antibody 22D9 (antibody, V domains shown)
VH: QSVEESGGRLVTPGTPLTLTCKVSGFSLSNYHMIWVRQAPGKGLEWIGIISRRGTTWYASWVKGRFTISKSSTTVDLKITSPTTEDTATYFCARGGVDSSYRDLWGPGTLVTVSS
VL: QVLTQTPSSVSAAVGGTVTINCQSNQRVANVNCLAWYQQKPGQPPKLLIYDASSLASGVPSRFSGSGSGTQFTLSISGVQCGDAATYYCQGTYATFGASAWYGDAFGGGTEVVVE
notes: Full-length rabbit IgG (150 kDa), expressed in HEK293 cells; Same variable domains as 31A5; also called clone 22D9
B2: rabbit monoclonal anti-pY796-DDR1 antibody 20G11 (antibody, V domains shown)
VH: B1 VH with S71G
VL: B1 VL with N25S
notes: Full-length rabbit IgG (150 kDa), recombinantly expressed in HEK293 cells; also called clone 20G11
B3: rabbit monoclonal anti-pY796-DDR1 antibody 31A5 (antibody, V domains shown)
VH: B1 VH
VL: B1 VL
notes: Full-length rabbit IgG (150 kDa), expressed in HEK293 cells; Same variable domains as 22D9; also called clone 31A5

What was measured:
[1] = target: Screening Peptide DDR1_HUMAN(788-808)[pY796] (human); assay: ELISA, biotinylated peptide on streptavidin plate, 30 ul transfection supernatant
[2] = target: Screening Peptide DDR1_HUMAN(788-808)[pY796] (human); assay: SPR (Biacore T200), antibody captured by goat anti-rabbit Fc, peptide as analyte, 25 C; value of Table 3 as repeated in the description
[3] = target: T1, Screening Peptide DDR1_HUMAN(788-808); assay: ELISA, biotinylated peptide on streptavidin plate, 30 ul transfection supernatant

Binder | OD 405 [1] | Kd [2] | OD 405 [3]
B1 | 3.12 OD 405 | 0.051 nM | 0.286 OD 405
B2 | 3.06 OD 405 | 0.038 nM | 0.313 OD 405
B3 | 2.98 OD 405 | – | 0.253 OD 405

From patent WO2018083240A1 (dated 2018)
